Assay results taken from patent US11787850B2, “Peptidic TGF-beta antagonists” (priority 2015, dated 2023).

Legend:
[1] = system: TGF-β1-induced PAI-1 protein production in A431 cells; test: Western blot for PAI-1 in A431 cells; format: cell-based; settings: 10 nM peptide, 100 pM TGF-β1, 24 hrs (FIG. 7)
Protocol: FIG. 7 illustrates that the small molecular weight CD109-based peptide P16 (but not P11 or P16-1) inhibits TGF-β1-induced PAI-protein production. A431 cells were treated without (lane 1) or with 100 pM of TGF-β1 (lanes 2-6) in the absence (lane 2) or presence of 10 nM of P11 (11 aa peptide, lane 3), P16 (16 aa peptide, lane 4), P16-1 (scrambled peptide of 16 aa, lane 5) or Tris buffer (buffer, lane 6) for 24 hrs. Cell lysates were analyzed by Western blot for PAI-1 ([…]) protein levels and normalized to GAPDH protein levels (loading control). In the conditions tested, P16 (but not P11) inhibited TGF-β1-induced PAI-1 expression.
A431 cells were treated for 18 hours without (−) or with (+) 100 pM TGF-β1 in the presence or absence of Peptide X or P16. The peptides were previously dissolved in Tris buffer and left untreated or treated with DMSO prior to addition to the cells. Cell lysates were analyzed by Western blot for PAI-1 (plasminogen activator inhibitor-1) protein expression (top panel) and GAPDH served as a loading control (bottom panel). PAI-1 was not detected in untreated cells (lane 1).
A431 cells were grown in 6-well plates to 70-80% confluency and serum-starved overnight. Cells were washed with PBS and treated with or without TGF-β1 in presence or absence of various CD109-based peptides as indicated in the figure legends. Cells were solubilized with 500 μl of lysis buffer (50 mM Tris, pH 7.5, 150 mM NaCl, 50 mM NaF, 50 mM β-glycerophosphate, 1 mM sodium orthovanadate, 1 mM dithiothreitol, 5 mM EDTA, pH 8.0, 1% Nonidet P-40, 10% glycerol, 10 μM phenylmethylsulfonyl fluoride, 200 μg/ml bovine serum albumin, 1 μg/ml leupeptin, […] soybean trypsin inhibitor, 10 μg/ml benzamide, and 2 μg/ml pepstatin) for 30 min at 4° C. with mild agitation. Cell lysates were collected and centrifuged for 10 min at 10,000×g. The supernatants were collected and protein concentrations were determined using the Bio-Rad protein assay kit. Lysates containing equivalent protein concentrations were mixed with 0.2 volume of 5× electrophoresis sample buffer containing 5% β-mercaptoethanol and boiled for 5 min. Samples were resolved on 7.5% SDS-polyacrylamide gels and transferred to nitrocellulose membranes. Membranes were blocked for 3 h in blocking buffer (30 mM Tris, pH 7.5, 150 mM NaCl, and 0.05% (w/v) Tween 20™ (Tris-buffered saline/Tween) containing 5% (w/v) skim milk powder). The blot was incubated overnight at 4° C. with a 1:1000 dilution of anti-PAI-1 antibody (BD Biosciences). Blots were washed with Tris-buffered saline/Tween and incubated for 45 min at room temperature with a 1:5000 dilution of secondary antibody conjugated to horseradish peroxidase (Pierce). Chemiluminescence detection of the immune complexes was performed using the ECL system (Amersham Biosciences) according to the manufacturer's instructions. The membranes were stripped and reprobed with an anti-GAPDH antibody to confirm equal protein loading.
A431 cells were treated without (lane 1) or with 100 pM of TGF-β1 (lanes 2-6) in the absence (lane 2) or presence of 10 nM of P11 (11 aa peptide, lane 3), P16 (16 aa peptide, lane 4), P16-1 (scrambled peptide of 16 aa, lane 5) or Tris buffer (buffer, lane 6) for 24 hrs. Cell lysates were analyzed by Western blot for PAI-1 ([…]) protein levels and normalized to GAPDH protein levels (loading control).
A431 squamous cell carcinoma cells were treated for 18 hours without (−) or with (+) 100 pM TGF-β1 in the presence or absence of Peptide X or P16. The peptides were dissolved in Tris buffer and left untreated or treated with 0.5% DMSO prior to addition to the cells. Cell lysates were analyzed by Western blot for PAI-1 ([…]) protein expression (top panel) and GAPDH served as a loading control (bottom panel).

[2] = Size-exclusion chromatography on Superdex Peptide 10/300GL column; format: physicochemical; settings: for formation of aggregates by size-exclusion chromatography: peptide in PBS, Superdex Peptide 10/300GL, 0.6 ml/min; for Aggregation?: size-exclusion chromatography, peptide dissolved in PBS
Protocol: Approximately 200 μg of each peptide X (40 amino acids), X-1 (28 amino acids), peptide A (161 amino acids), P11 (11 amino acids), P16 (16 amino acids), P21 (21 amino acids, P16-2 (16 amino acids, scrambled sequence control), X-3 (16 amino acids) and X-4 (11 amino acids) were dissolved in phosphate-buffered saline (PBS) and loaded onto a Superdex Peptide 10/300GL column. The column was eluted with PBS at a flow rate of 0.6 mL/min and eluents were analyzed for peptide content by measuring relative absorbance at a wavelength of 215 nm. (FIGS. 3A and 3B) The data is plotted with relative absorbance (Y-axis) against elution volume (X-axis). Peptides 1-9 are color coded (A—peptides (1) to (5); B (peptides (6) to (9)). As shown on panel A, peptide X (peptide 1, black line) elution profile indicated two major peaks at approximately 8 mL and 11 mL which correspond to molecular weights greater than 12.4 kDa. The theoretical molecular weight of peptide X is 4.7 kDa which is expected to elute from the column at approximately 15 mL. Under the conditions tested, peptide X existed as high molecular weight aggregates with minimal soluble (monomeric) form. On the other hand, P16 (peptide 5, green line) elution profile indicated a broad peak between 14-22 mL which is expected to contain peptides of between 0.1 and 6 kDa and is consistent with its theoretical molecular weight of 2.01 kDa.
FIG. 4 illustrates the standard curve used for size-exclusion chromatography of standard peptides using the Superdex Peptide 10/300 GL column (results provided in FIG. 3). A pool of standard peptides of various molecular weights (1. cytochrome c (Mr 12.384 kDa) 1 mg/mL; 2. aprotinin (Mr 6.512 kDa) 2 mg/mL; 3. vitamin B12 (Mr 1.355 kDa) 0.1 mg/mL; 4. (Gly)3 (Mr 0.189 kDa) 0.1 mg/mL; 5. Gly (Mr 0.075 kDa) 7.8 mg/mL) were subjected to size-exclusion chromatography using the Superdex Peptide 10/300 GL column (flow rate 0.5 ml/min at room temperature, sample volume of 50 μL, eluent 0.05M phosphate, 0.15 M NaCl, ph 7.0). The resulting chromatogram (absorbance at 215 nm (in mAU, left Y axis) and conductivity (in mS/cm, right Y axis, in function of volume of elution (in mL)) indicates the elution profiles of the above peptides with high MW peptides eluting in earlier fractions and lower MW peptides eluting in later fractions as expected. The molecular weights of peptides were plotted against elution volume generating a standard curve (not shown).
More specifically, approximately […] of each peptide X (40 amino acids), X-1 (28 amino acids), peptide A (161 amino acids), P11 (11 amino acids), P16 (16 amino acids), P21 (21 amino acids, P16-2 (16 amino acids, scrambled sequence control), X-3 (16 amino acids) and X-4 (11 amino acids) were dissolved in phosphate-buffered saline (PBS) and loaded onto a Superdex Peptide 10/300GL column. The column was eluted with PBS at a flow rate of 0.6 ml/min and eluants were analyzed for peptide content by measuring relative absorbance at a wavelength of 215 nm. The data were plotted with relative absorbance (Y-axis) against elution volume (X-axis). […] The theoretical molecular weight of peptide X is 4.7 kDa which is expected to elute from the column at approximately 15 mL. […] P16 (peptide 5) elution profile indicated a peak between 14-22 mL which was expected to contain peptides of between 0.1 and 6 kDa and is consistent with its theoretical molecular weight of 2.01 kDa.
More specifically, a pool of standard proteins of various molecular weights were subjected to size-exclusion chromatography using the Superdex Peptide 10/300 GL column. The resulting chromatogram indicated the elution profiles of the peptides with high molecular weight peptides eluting in earlier fractions and lower molecular weight peptides eluting in later fractions as expected. The molecular weights of peptides were plotted against elution volume generating a standard curve (not shown) and was used to calculate molecular weights of the CD109-based peptides. […]

[3] = system: TGF-β1-induced Smad3-driven (CAGA12-lux) transcriptional activity; test: Luciferase reporter assay in HEK293-(CAGA)12 cells; format: cell-based
[4] = system: TGF-β1-induced Smad3-driven (CAGA12-lux) transcriptional activity; test: Luciferase reporter assay in HEK293-(CAGA)12 cells; format: cell-based; settings: 100 pM TGF-β1, 18 hours
Protocol: FIGS. 5A and 5B illustrate that some small molecular weight CD109-based peptides (Peptide A, P28, P21 and […]) inhibit TGF-β1-induced Smad3-driven transcriptional activity. […] Cell lysates were analyzed for luciferase activity and data are expressed as mean±standard deviation of relative light units (RLU). […] Under the conditions tested, peptide A, P28, P21 and P16 inhibited TGF-β1-induced transcriptional (CAGA12-lux) activity.
FIG. 6 illustrates that the small molecular weight CD109-based peptide P16 (but not P16-2, P11 or X-4) inhibit TGF-β1-induced Smad3-driven transcriptional activity. HEK293 cells stably transfected with the Smad3-responsive CAGA12-lux luciferase reporter were treated for 18 hours without (−) or with (+) […] TGF-β1 in the presence or absence of 10 nM of P16-2 (16 aa scrambled control), P11 (11 aa sequence), P16 (16 aa), X-4 (11 aa) or Tris-buffer (buffer control) as indicated. Cell lysates were analyzed for luciferase activity and data are expressed as mean±standard deviation of luciferase activity. Results are shown as luciferase activity for the peptides used.
FIG. 8 illustrates that DMSO treatment enhances the TGF-β inhibitory activity of Peptide X but not P21 or P16. HEK293 cells stably transfected with the Smad3-responsive CAGA12-lux luciferase reporter were treated for 18 hours without (−) or with (+) 100 pM TGF-β1 in the presence or absence of Peptide X (PX), P21 or P16. The peptides were previously dissolved in Tris buffer and left untreated or treated with DMSO prior to addition to the cells. Addition of Tris buffer or DMSO alone served as additional controls. Cell lysates were analyzed for luciferase activity and data are expressed as mean±standard deviation of luciferase activity. Results are shown as luciferase activity. […] P16 and P21 inhibited TGF-β1-induced CAGA12-lux activity and these effects were not enhanced by DMSO treatment. […]
FIG. 25 is a graph showing the ability of CD109-based peptides to inhibit TGF-β-induced, Smad3-driven transcriptional activity. HEK293 cells stably transfected with the Smad3-responsive CAGA12-lux luciferase reporter were treated for 18 hours without (−) or with (+) 100 pM TGF-b1 in the presence or absence of 10 nM of P16, P16.2, peptide A, P15, P14, P13, P12, P11, peptide X, P21, or 2% NH4OH buffer (buffer control) as indicated. Cell lysates were analyzed for luciferase activity and data are expressed as mean±standard deviation of luciferase activity.
HEK293 cells stably transfected with the Smad3-responsive CAGA12-lux luciferase reporter construct were incubated with dimeric or monomeric forms of peptide A as indicated and treated with 100 pM TGF-b overnight. Cell lysates were analyzed for luciferase activity. Data are presented as fold-activation compared to TGF-b1 treatment alone (scaled to 1.0). M+D, mixture of monomer and dimer.
Luciferase reporter assays were performed using a HEK293-(CAGA)12 cell line that stably expresses a TGF-β/Smad3-responsive (CAGA)12-luciferase reporter gene [Cash et al. 2013]. HEK293-(CAGA)12 cells were grown in 24-well plates to 70-80% confluency and serum-starved overnight. Cells were washed with PBS and treated with or without TGF-β1 in presence or absence of various CD109-based peptides as indicated in the figure legends. Cells were then washed twice with cold PBS and solubilized in 100 μl of Passive Lysis Buffer (Promega) for 30 min at 4° C. The cell lysates were assayed for luciferase and β-galactosidase activities using commercially available kits (BD Biosciences).
HEK293 cells stably transfected with the Smad3-responsive CAGA12-lux luciferase reporter were treated for 18 hours without (−) or with (+) 100 pM TGF-β1 in the presence or absence of 10 nM (FIG. 5A) or 5 nM (FIG. 5B) of peptide A (Pep A, 161 aa), P28 (28 aa peptide), P21 (21 aa peptide), P16 (16 aa peptide), P16.2 scrambled peptide (16 aa, scrambled P16 sequence) or Tris-buffer (negative control for peptides) as indicated. […]

[5] = 10 nM peptide, 100 pM TGF-β1, 18 hours (FIG. 6)
[6] = 10 nM or 5 nM peptide, 100 pM TGF-β1, 18 hours (FIG. 5)

Sequence | inhibition of TGF-β1-induced PAI-1 protein production [1] | formation of aggregates by size-exclusion chromatography [2] | Aggregation? [2] | inhibition of TGF-β1-induced CAGA12-lux activity [3, 5] | inhibition of TGF-β1-induced CAGA12-lux activity, peptide pre-treated with DMSO ([4]; 0.5% DMSO pre-treatment (FIG. 8)) | inhibition of TGF-β1-induced CAGA12-lux activity, peptide in Tris buffer left untreated ([4]; no DMSO (FIG. 8)) | inhibition of TGF-β1-induced CAGA12-lux activity [3, 6]
ETWIWLDTNMG [Peptide P11] | not | did not | Not aggregated | did not |  |  | 
ETWIWLDTNMGSRIYQEFEVT [Peptide P21] |  | did not | Not aggregated |  | not enhanced | inhibited | inhibited
GSRIYQEFEVT [Peptide X-4] |  | did not | Not aggregated | did not |  |  | 
ILNTWMDSTQIGYRWE [Peptide P16-1, scrambled peptide of 16 aa, control, reference compound] | no effect |  |  |  |  |  | 
LDTNMGSRIYQEFEVT [Peptide X-3] |  | formed aggregates | Aggregated |  |  |  | 
WINMDTGQLIEQRYTS [Peptide P16-2, reference compound] |  | did not | Not aggregated | no effect |  |  | no inhibitory effect
